According to patent publication US20240199761A1 (AstraZeneca / MedImmune, published 2024):
Positions count from the first letter of the chain named. One block for each binder: values may come before it.

Experiments:
recombinant mouse PAD2 = molecular target: T1, recombinant mouse PAD2 (mouse, UniProt Q08642 1-673); assay: ratio of SPR KDs, mouse PAD2 against human PAD2; antibody captured on C1-Protein G', PAD flowed over
T1 construct: Recombinant and tagged

recombinant human PAD2 [1] = molecular target: recombinant human PAD2 (human, UniProt Q9Y2J8 1-665); assay: cell-based or functional assay
recombinant human PAD2 [2] = molecular target: recombinant human PAD2 (human, UniProt Q9Y2J8 1-665, enzymatically biotinylated on an Avi-tag (when captured on the SPR chip)); assay: cell-based or functional assay
[3] = molecular target: T2, human PAD2, recombinant, tags at the N-terminus (human, UniProt Q9Y2J8 1-665, enzymatically biotinylated on an Avi-tag where captured on streptavidin); assay: SPR; antibody captured on a surface, PAD2 flowed over
T2 construct: not shown: N-terminal tags incl; Avi-tag

[4] = molecular target: T3, mouse PAD2, recombinant, tags at the N-terminus (mouse, UniProt Q08642 1-673, enzymatically biotinylated on an Avi-tag where captured on streptavidin); assay: as above
T3 construct: not shown: N-terminal tags incl; Avi-tag

[5] = molecular target: T4, cynomolgus PAD2, recombinant, tags at the N-terminus (cynomolgus, UniProt G7NUR0 1-665, enzymatically biotinylated on an Avi-tag where captured on streptavidin); assay: as above
T4 construct: also called Cyno PAD2; not shown: N-terminal tags incl; Avi-tag

[6] = molecular target: T2, human PAD2, recombinant, tags at the …; assay: SPR; antibody on C1-Protein G', PAD2 flowed over
[7] = molecular target: T3, mouse PAD2, recombinant, tags at the …; assay: SPR; antibody on C1-Protein G', PAD2 flowed over
[8] = molecular target: T4, cynomolgus PAD2, recombinant, tags at …; assay: SPR; antibody on C1-Protein G', PAD2 flowed over
huFcRn = molecular target: T5, huFcRn (human, UniProt P55899 24-297; P61769 21-119, limits assumed); assay: huFcRn affinity chromatography, pH gradient elution
T5 construct: also called human neonatal Fc receptor

[9] = molecular target: T6, cynomolgus PAD2 haplotype N55D, N82S (37.5%) (cynomolgus, UniProt G7NUR0 1-665); assay: SPR; antibody captured on C1-Protein G', PAD2 flowed over
T6 chain: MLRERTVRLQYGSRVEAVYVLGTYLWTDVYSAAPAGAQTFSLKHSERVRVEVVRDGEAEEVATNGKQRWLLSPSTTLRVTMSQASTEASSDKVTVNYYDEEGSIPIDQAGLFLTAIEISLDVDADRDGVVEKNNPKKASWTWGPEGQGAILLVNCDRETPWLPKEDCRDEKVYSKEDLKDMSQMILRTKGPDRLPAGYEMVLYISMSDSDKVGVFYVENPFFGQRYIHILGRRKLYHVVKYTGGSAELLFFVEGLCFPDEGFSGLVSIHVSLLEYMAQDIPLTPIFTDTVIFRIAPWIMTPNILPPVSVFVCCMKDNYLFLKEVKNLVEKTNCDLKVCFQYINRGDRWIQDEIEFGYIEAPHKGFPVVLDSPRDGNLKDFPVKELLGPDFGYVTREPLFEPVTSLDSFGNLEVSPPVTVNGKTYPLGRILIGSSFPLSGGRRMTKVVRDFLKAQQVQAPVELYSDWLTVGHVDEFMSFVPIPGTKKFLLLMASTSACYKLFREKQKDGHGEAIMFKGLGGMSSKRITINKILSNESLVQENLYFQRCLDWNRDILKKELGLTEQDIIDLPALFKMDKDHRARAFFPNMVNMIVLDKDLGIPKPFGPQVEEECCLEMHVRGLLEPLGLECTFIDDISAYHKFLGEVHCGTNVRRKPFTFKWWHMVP

[10] = molecular target: T7, cynomolgus PAD2 haplotype N55D, T63A, N82S (9.4%) (cynomolgus, UniProt G7NUR0 1-665); assay: as above
T7 chain: T6 chain with T63A

[11] = molecular target: T2, human PAD2, recombinant, tags at the …; assay: SPR; biotinylated antibody on C1-streptavidin, PAD2 flowed over
[12] = molecular target: T4, cynomolgus PAD2, recombinant, tags at …; assay: as above
[13] = molecular target: T2, human PAD2, recombinant, tags at the …; assay: as above; remark: listed apart in the source
[14] = molecular target: T4, cynomolgus PAD2, recombinant, tags at …; assay: as above; remark: listed apart in the source
[15] = molecular target: T2, human PAD2, recombinant, tags at the …; assay: SPR; antibody on C1-Protein G', PAD2 flowed over; remark: listed apart in the source
[16] = molecular target: T3, mouse PAD2, recombinant, tags at the …; assay: SPR; antibody on C1-Protein G', PAD2 flowed over; remark: listed apart in the source
[17] = molecular target: T4, cynomolgus PAD2, recombinant, tags at …; assay: SPR; antibody on C1-Protein G', PAD2 flowed over; remark: listed apart in the source

B4: Clone 08 (Bis3, TM; Fab anti-PAD2, scFv anti-PAD4) (bispecific antibody, human IgG1, lambda)
heavy: not shown
light: SYVLTQPPSVSVSPGQTASITCSGDKVGDKYVSWYQQKPGQSPVLVIYQDSQRPSGIPERFSGSNSGNTATLTISGTQAMDEADYYCQTWAPDVLLFGSGTKVTVLGQPKAAPSVTLFPPSSEELQANKATLVCLISDFYPGAVTVAWKADSSPVKAGVETTTPSKQSNNKYAASSYLSLTPEQWKSHRSYSCQVTHEGSTVEKTVAPTECS
notes: Bivalent bispecific IgG-HC-scFv; also called Clone 8*; Clone 8^#
- fold difference in KD, mouse/human (recombinant mouse PAD2): 1.1 fold
- HPLC retention (huFcRn): 17 min
- Relative retention (huFcRn): -0.207
- Kd [9]: 6.4 pM
- koff [9]: 2.65e-05 s⁻¹
- kon [9]: 4.23e+06 M⁻¹ s⁻¹
- Kd [10]: 0.0434 nM
- koff [10]: 6.76e-05 s⁻¹
- kon [10]: 1.58e+06 M⁻¹ s⁻¹
- Potency (IC50), Histone-H3 assay (recombinant human PAD2 [1]): 94 pM

B5: Clone 08, Bis3 anti-PAD2 Fab / anti-PAD4 scFv, Fc TM (bispecific antibody, human IgG1, lambda)
heavy: not shown
light: B4 light
notes: Bivalent for PAD2 and for PAD4; In the rows marked ^# the antibody was chemically biotinylated; also called Clone 8*; Clone 8^#
- Kd [11]: 7.51 pM
- koff [11]: 4.74e-05 s⁻¹
- kon [11]: 5.88e+06 M⁻¹ s⁻¹
- Kd [12]: 0.0121 nM
- koff [12]: 0.0001 s⁻¹
- kon [12]: 9.48e+06 M⁻¹ s⁻¹
- Kd [6]: 6.65 pM
- Kd [7]: 7.19 pM
- Kd [8]: 0.0167 nM
- Kd [13]: 7.51 pM
- Kd [14]: 0.0121 nM
- Kd [15]: 0.00665 nM
- koff [15]: 2.97e-05 s⁻¹
- kon [15]: 4.48e+06 M⁻¹ s⁻¹
- Kd [16]: 0.00719 nM
- koff [16]: 3.31e-05 s⁻¹
- kon [16]: 4.65e+06 M⁻¹ s⁻¹
- Kd [17]: 0.0167 nM
- koff [17]: 4.52e-05 s⁻¹
- kon [17]: 2.74e+06 M⁻¹ s⁻¹

B6: Clone 07 (Bis3, TM; Fab anti-PAD4, scFv anti-PAD2) (bispecific antibody, human IgG1, lambda)
heavy: not shown
light: QSALTQPRSVSGSPGQSVTISCTGTSGDVGRYSHVSWYQQHPGKAPKLIIYNVYERPSGVPDRFSGSKSGNTASLTISGLQAEDEADYYCSSHSRSSTPVLFGGGTKLTVLGQPKAAPSVTLFPPSSEELQANKATLVCLISDFYPGAVTVAWKADSSPVKAGVETTTPSKQSNNKYAASSYLSLTPEQWKSHRSYSCQVTHEGSTVEKTVAPTECS
notes: Bivalent bispecific IgG-HC-scFv; also called Clone 7*; PAD240007
- fold difference in KD, mouse/human (recombinant mouse PAD2): 1 fold
- HPLC retention (huFcRn): 17.8 min
- Relative retention (huFcRn): -0.081
- Potency (IC50), Histone-H3 assay (recombinant human PAD2 [1]): 238 pM

B7: Clone 07, Bis3 anti-PAD4 Fab / anti-PAD2 scFv, Fc TM (bispecific antibody, human IgG1, lambda)
heavy: not shown
light: B6 light
notes: Bivalent for PAD2 and for PAD4; also called Clone 7*; PAD240007
- Kd [6]: 16.1 pM
- Kd [7]: 16.2 pM
- Kd [8]: 0.0219 nM
- Kd [15]: 0.0161 nM
- koff [15]: 3.21e-05 s⁻¹
- kon [15]: 2e+06 M⁻¹ s⁻¹
- Kd [16]: 0.0162 nM
- koff [16]: 4.45e-05 s⁻¹
- kon [16]: 2.76e+06 M⁻¹ s⁻¹
- Kd [17]: 0.0219 nM
- koff [17]: 5.46e-05 s⁻¹
- kon [17]: 2.61e+06 M⁻¹ s⁻¹

The next lines start with the values.

- fold difference in KD, mouse/human (recombinant mouse PAD2): 1.2 fold
- Potency (IC50), Histone-H3 assay (recombinant human PAD2 [1]): 138 pM
B1: Clone 22 (IgG) (141LO0035 hIgG1 pgl-4) (antibody, V domains shown)
VH: not shown
VL: SYVLTQPPSVSVSPGQTASITCSGDKVGDKYVSWYQQKPGQSPVLVIYQDSQRPSGIPERFSGSNSGNTATLTISGTQAMDEADYYCQTWAPDVLLFGSGTKVTVL
notes: also called PAD2 IgG

- potency (IC50), Histone-H3 citrullination ELISA, recombinant PAD2 (recombinant human PAD2 [2]): < 1 nM
B2: Clone 22 (141LO0035 hIgG1 pgl-4), anti-PAD2, as IgG (antibody, V domains shown)
VH: not shown
VL: B1 VL

- Kd [3]: 3.9 pM
- koff [3]: 1.71e-05 s⁻¹
- kon [3]: 4.36e+06 M⁻¹ s⁻¹
- Kd [4]: 4.59 pM
- koff [4]: 2.24e-05 s⁻¹
- kon [4]: 4.93e+06 M⁻¹ s⁻¹
- Kd [5]: 0.011 nM
- koff [5]: 3.33e-05 s⁻¹
- kon [5]: 3.06e+06 M⁻¹ s⁻¹
- Kd [6]: 3.9 pM
- Kd [7]: 4.59 pM
- Kd [8]: 0.011 nM
B3: anti-PAD2 Clone 22 (141LO0035 hIgG1 pgl-4), IgG (antibody, V domains shown)
VH: not shown
VL: B1 VL
notes: also called Clone 22 (IgG)
